Molecular target: the molecule itself
Assay: yeast two-hybrid system and immunoprecipitation

B1: p35 isoform of p53 derived from rat cardiac myocytes (other)
chain: MEDSQSDMSIELPLSQETFSCLWKLLPPDDILPTTATGSPNSMEDLFLPQDVAELLEGPEEALQVSAPAAQEPGTEAPAPVAPASATPWPLSSSVPSQKTYQGNYGFHLGFLQSGTAKSVMCTYSISLNKLFCQLAKTCPVQLWVTSTPPPGTRVRAMAIYKKSQHMTEVVRRCPHHERCSDGDGLAPPQHLIRVEGNPYAEYLDDRQTFRHSVVVPYEPPEVGSDYTTIHYKYMCNSSCMGGMNRRPILTIITLEDSRSVGVSASACSES
binding result: no binding

Source: patent US6294384, “Compositions and methods based upon an isoform of p53” (The Brigham and Women's Hospital Inc., dated 2001)
